Columns and labels:
human PDGF-BB [1] = biological target: T1, human PDGF-BB (human, UniProt P01127 82-190); assay: SPR (Biacore 2000), antibody captured via anti-human IgG, PDGF injected
T1 construct: Recombinant human PDGF-BB homodimer, bought (Biosource PHG0043; R&D Systems); also called hPDGF-BB; huBB
Procedure: (§1) Anti-human (A-D, I-K) or anti-mouse (E-H) IgG antibodies were immobilized in flow cells of CM5 sensor chips. 1 μg/mL of MOR8457-IKR-hIgG1-3m (A-D), MOR8457-mIgG1 (E-H) or MOR8457-GL-hIgG1-3m (I-K) was injected independently over the respective anti-human or anti-mouse surface for 10 seconds resulting in a stable anti-PDGF surface between 50-100 RU. Different concentration of PDGF proteins, 0.25, 0.5, and 1 nM, was then injected over the antibody surface for 2 minutes at a flow rate of 100 μl/min for binding. The complex was allowed to dissociate for 10 minutes. The surface was regenerated with a 30 second injection of 10 mM magnesium chloride leaving the surface ready for another round of anti-PDGF antibody capture and PDGF binding kinetics. Each of these three antibodies bound tightly to human (A, E, I), mouse (B, F, J) and rat (C, G, K) PDGF-BB. MOR8457-IKR-hIgG1-3m (D) and MOR8457-mIgG1 (H) bound to human PDGF-AB. Each sensorgram shown is one representative of three independent experiments.
(§2) In order to test the specificity and cross species reactivity, the binding affinities of three MOR8457 IgG variants, MOR8457-IKR-hIgG1-3m, MOR8457-mIgG1, and MOR8457-GL-hIgG1-3m, to different human PDGF ligands, including human PDGF-AA, -AB, -DD, as well as rat PDGF-BB (all obtained from R&D systems, Minneapolis, Minn.) and mouse PDGF-BB (Invitrogen, Carlsbad, Calif.) were tested. Briefly, anti-human or anti-mouse IgG (GE Healthcare) antibodies were immobilized in adjacent flow cells of a CM5 sensor chip between 8000-10,000 resonance units (RU) using amine coupling as directed by the manufacturer. Antibodies were diluted into PBS-NET (10 mM Phosphate pH 7.4, 287 mM NaCl, 2.7 mM KCl, 3.2 mM EDTA, 0.01% Tween 20) to 1 μg/mL and injected independently over the respective anti-human or anti-mouse surface for 10 seconds resulting in a stable anti-PDGF surface between 50-100 RU. PDGF proteins were diluted to 1 nM in PBS-NET and serially diluted two-fold to 0.25 nM. Each concentration of PDGF was then injected over the antibody surface for 2 minutes at a flow rate of 100 μl/min. The complex was allowed to dissociate for 10 minutes. The surface was regenerated with a 30 second injection of 10 mM magnesium chloride leaving the surface ready for another round of anti-PDGF antibody capture and PDGF binding kinetics.

rat PDGF-BB [2] = biological target: T2, rat PDGF-BB (rat, UniProt Q05028 74-182); assay: as above
T2 construct: also called ratBB
Procedure: as §1, §2

mouse PDGF-BB [3] = biological target: T3, mouse PDGF-BB (mouse, UniProt P31240 82-190); assay: as above
T3 construct: also called muBB; Mu PDGF-BB
Procedure: as §1, §2

human PDGF-BB [4] = biological target: T1, human PDGF-BB; assay: cell-based or functional assay
human PDGF-AB [5] = biological target: T4, human PDGF-AB (human, UniProt P04085 87-211, limits assumed); assay: SPR (Biacore 2000), antibody captured via anti-human IgG, PDGF injected
T4 construct: Heterodimer of PDGF-A and PDGF-B, bought; also called huAB; Hu PDGF-AB
Procedure: as §1, §2

human PDGF-AB [6] = biological target: T4, human PDGF-AB; assay: SPR (Biacore)
Procedure: as §2, with “kinetics. […]” for “kinetics.”

human PDGF-AA = human PDGF-AA (human, UniProt P04085 87-211, limits assumed); assay: SPR (Biacore), antibody captured
Procedure: as §2, with “kinetics. Kinetic data were double referenced (Myszka et al., 1999, J. Mol. Recognit. 12 279) using scrubber2 software (Bio-Logic Software), then fit to a 1:1 binding model using Biacore evaluation software version 4.1. The results shown were an average of three independent binding studies.” for “kinetics.”

human PDGF-DD = human PDGF-DD (human, UniProt Q9GZP0 250-370, limits assumed); assay: SPR (Biacore), antibody captured
Procedure: as §2, with “kinetics. Kinetic data were double referenced (Myszka et al., 1999, J. Mol. Recognit. 12 279) using scrubber2 software (Bio-Logic Software), then fit to a 1:1 binding model using Biacore evaluation software version 4.1. The results shown were an average of three independent binding studies.” for “kinetics.”

human PDGF-BB [7] = biological target: T1, human PDGF-BB; assay: SPR (Biacore 3000), antibody captured via anti-human IgG, PDGF injected
Procedure: (§3) FIG. 20, comprising panels A through D, depicts Biacore sensorgrams showing the binding kinetics of MOR8457-16 to different PDGF isoforms. MOR8457-16 was captured onto CM5 chips using an anti-human IgG antibody. The binding kinetics of each PDGF isoform was assessed by flowing different concentrations of each PDGF isoform over the captured MOR8457-16 surface. The concentrations of Hu-PDGF-BB (A) and Mu-PDGF-BB (C) were 0.25, 0.5, and 1 nM, and the concentrations for Hu-PDGF-AB (B) and Rat-PDGF-BB (D) were 0.5 and 1 nM. Each sensorgram is one representative of two independent experiments. Kinetics data were double referenced and fit using Biacore evaluation software version 4.1.
(§4) The binding affinities of MOR8457-16 to different PDGF isoforms were determined as previously described (Example 6) using a Biacore 3000 (GE Healthcare, Piscataway N.J.). Briefly, an anti-human IgG (GE Healthcare) antibody was immobilized in flow cells of a CM5 sensor chip between 8,000-10,000 resonance units (RU) using amine coupling as directed by the manufacturer. Test antibodies were diluted into PBS-NET (10 mM Phosphate pH 7.4, 287 mM NaCl, 2.7 mM KCl, 3.2 mM EDTA, 0.01% Tween-20) to 0.5 ug/mL and injected over the anti-human antibody surface for 30 seconds resulting in a stable anti-PDGF surface between 82-122 RU. PDGF proteins were diluted to 1 nM in PBS-NET and serially diluted two-fold to 0.25 nM. Each concentration of PDGF was then injected over the antibody surface for 2 minutes at a flow rate of 100 ul/min. The complex was allowed to dissociate for 10 minutes. The surface was regenerated with a 30 second injection of 3M magnesium chloride leaving the surface ready for another round of anti-PDGF antibody capture and PDGF binding kinetics. Kinetic data was double referenced (D. G. Myszka et al., J. Mol. Recognit. 12:279, 1999) using Scrubber2 software (Bio-Logic Software), then fit to a 1:1 binding model using Biacore evaluation software version 4.1. Protein concentrations of all PDGF isoforms were corrected with active concentrations determined under the condition of limiting mass transport (Karlsson et al., METHODS: A companion to Methods in Enzymology 6:99-110, 1994). Results shown were averages of two independent binding studies.

human PDGF-AB [8] = biological target: T4, human PDGF-AB; assay: as above
Procedure: as §3, §4

rat PDGF-BB [9] = biological target: T2, rat PDGF-BB; assay: as above
Procedure: as §3, §4

mouse PDGF-BB [10] = biological target: T3, mouse PDGF-BB; assay: as above
Procedure: as §3, §4

T3 sequence (P31240 82-190 limits assumed): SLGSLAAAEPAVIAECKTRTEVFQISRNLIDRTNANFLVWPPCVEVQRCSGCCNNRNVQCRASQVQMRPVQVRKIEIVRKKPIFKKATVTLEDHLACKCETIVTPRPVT
T2 sequence (Q05028 74-182 limits assumed): as the sequence (P31240 82-190 limits assumed) above, with I83V, I102V counted along it
T4 sequence (chain, as listed by the source limits assumed, chain 2 of 2, other chains not shown): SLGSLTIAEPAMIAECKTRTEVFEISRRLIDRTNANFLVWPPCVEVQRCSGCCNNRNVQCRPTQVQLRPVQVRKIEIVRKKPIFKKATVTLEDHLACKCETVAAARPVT
T1 sequence (P01127 82-190 limits assumed): as the sequence (chain, as listed by the source limits assumed, chain 2 of 2, other chains not shown) above
Chain of human PDGF-DD (Q9GZP0 250-370 limits assumed): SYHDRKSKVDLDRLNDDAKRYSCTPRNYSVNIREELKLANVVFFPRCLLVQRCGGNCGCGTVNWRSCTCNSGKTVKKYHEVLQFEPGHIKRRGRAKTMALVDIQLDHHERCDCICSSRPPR

Binder | Kd (human PDGF-BB [1]) [nM] | koff (human PDGF-BB [1]) [s⁻¹] | kon (human PDGF-BB [1]) [M⁻¹ s⁻¹] | Kd (rat PDGF-BB [2]) [nM] | koff (rat PDGF-BB [2]) [s⁻¹] | kon (rat PDGF-BB [2]) [M⁻¹ s⁻¹] | Kd (mouse PDGF-BB [3]) [nM] | koff (mouse PDGF-BB [3]) [s⁻¹] | kon (mouse PDGF-BB [3]) [M⁻¹ s⁻¹] | IC50, inhibition of PDGF-BB (2.5 ng/ml) stimulated mesangial cell proliferation (human PDGF-BB [4]) [nM] | also measured
MOR8457-GL-hIgG1-3m (antibody, V domains shown, Germlined VH and VL, human IgG1-3m, wild type human lambda) VH: EVQLLESGGGLVQPGGSLRLSCAASGFTFSSYAMSWVRQAPGKGLEWVSYISDDGSLKYYADSVKGRFTISRDNSKNTLYLQMNSLRAEDTAVYYCAKHPYWYGGQLDLWGQGTLVTVSS VL: SYELTQPPSVSVSPGQTASITCSGDSLGSYFVHWYQQKPGQSPVLVIYDDSNRPSGIPERFSGSNSGNTATLTISGTQAMDEADYYCSAFTHNSDVFGGGTKLTVLG | 0.013 | 0.00019 | 1.5e+07 | 0.015 | 0.00024 | 1.7e+07 | 0.004 | 0.0002 | 5.3e+07 | 0.02 | 
MOR8457-IKR-hIgG1-3m (antibody, also called MOR8457-IKR-IgG1-3m) heavy: not shown light: SYELTQPPSVSVAPGQTARISCSGDSLGSYFVHWYQQKPGQAPVLVIYDDSNRPSGIPERFSGSNSGNTATLTISGTQAEDEADYYCSAFTHNSDVFGGGTKLTIKRQPKAAPSVTLFPPSSEELQANKATLVCLISDFYPGAVTVAWKADSSPVKAGVETTTPSKQSNNKYAASSYLSLTPEQWKSHRSYSCQVTHEGSTVEKTVAPTECS | 0.028 | 0.000362 | 1.27e+07 | 0.025 | 0.000447 | 1.77e+07 | 0.01 | 0.000293 | 2.95e+07 |  | Kd (human PDGF-AB [5]): 0.069 nM; koff (human PDGF-AB [5]): 0.00045 s⁻¹; kon (human PDGF-AB [5]): 6.5e+06 M⁻¹ s⁻¹; IC50, inhibition of PDGF-BB induced human mesangial cell proliferation (BrdU incorporation) (human PDGF-BB [4]): 0.0134 nM; fold reduction in binding against PDGF-BB (human PDGF-AB [6]): ~3 fold; binding result (human PDGF-AA): no binding (tested: 0.25-1 nM PDGF); binding result (human PDGF-DD): no binding (tested: 0.25-1 nM PDGF)
MOR8457-16 (antibody, human IgG1, lambda, V domains shown, Engineered variant of MOR8457-GL: heavy E6Q, Q13K; light N53K (Kabat); human IgG1-3m; also called MOR8547-16) VH: EVQLLQSGGGLVKPGGSLRLSCAASGFTFSSYAMSWVRQAPGKGLEWVSYISDDGSLKYYADSVKGRFTISRDNSKNTLYLQMNSLRAEDTAVYYCARHPYWYGGQLDLWGQGTLVTVSS VL: SYELTQPPSVSVSPGQTASITCSGDSLGSYFVHWYQQKPGQSPVLVIYDDSKRPSGIPERFSGSNSGNTATLTISGTQAMDEADYYCSAFTHNSDVFGGGTKLTVLG |  |  |  |  |  |  |  |  |  | 0.014 | Kd (human PDGF-BB [7]): 0.00975 nM; koff (human PDGF-BB [7]): 0.000169 s⁻¹; kon (human PDGF-BB [7]): 1.73e+07 M⁻¹ s⁻¹; Kd (human PDGF-AB [8]): ~0.00802 nM; koff (human PDGF-AB [8]): < 1e-05 s⁻¹; kon (human PDGF-AB [8]): 3.39e+06 M⁻¹ s⁻¹; Kd (rat PDGF-BB [9]): 0.00888 nM; koff (rat PDGF-BB [9]): 0.000114 s⁻¹; kon (rat PDGF-BB [9]): 1.29e+07 M⁻¹ s⁻¹; Kd (mouse PDGF-BB [10]): 0.00862 nM; koff (mouse PDGF-BB [10]): 0.00018 s⁻¹; kon (mouse PDGF-BB [10]): 2.16e+07 M⁻¹ s⁻¹
